Assay results reported in the RNAGym collection of RNA variant scans (doi:10.7554/elife.80360).

B1: HDV Ribozyme (parent)
chain: GGCCGGCAUGGUCCCAGCCUCCUCGCUGGCGCCGGCUGGGCAACAUUCCGAGGGGACCGUCCCCUCGGUAAUGGCGAAUGGGACCCA

Variants of: B1
Test: self-cleavage, relative activity (ratio to wild type); higher = more cleavage; co-transcriptional

Variant | self-cleavage
G35A A56C | 0.346
C33A G68U | 0.102
G34U C44A | 0.0545
C33G C62A | 0.225
G34C C85A | 0.249
G34C C85G | 0.125
C33U U46A | 0.434
C33U A78G | 0.228
C33G G40C | 0.138
C33A A45G | 0.0536
G35A C64U | 0.475
G35C A71U | 0.128
G35C A71G | 0.262
C32U A83C | 0.232
C32U A83G | 0.501
G35C A43U | 0.0386
C33A U47A | 0.0378
C33A U47C | 0.0692
C33G G59C | 0.201
G35A C66U | 0.655
C33A G40U | 0.23
C32U G52A | 0.805
C32U G52U | 0.963
C33U C61A | 0.721

Variant | self-cleavage
C32U U47C | 0.764
C33G A78C | 0
C32U C86A | 0.69
C33U U60C | 0.773
C33U C86A | 0.746
G34A G39C | 0.0707
G35A U79C | 0.282
G34A G74C | 0.102
G34U G82A | 0.123
C33G G74C | 0.237
C33A A83U | 0.217
C33A U60G | 0.116
G34A G82U | 0.129
G34A G82A | 0.0671
G34A U69C | 0.291
G34C G55C | 0.261
C32U G40A | 0.987
C33U C44A | 0.499
C33A G80A | 0.123
C33U C36A | 0.151
G34A A78U | 0.0489
G34A G73A | 0.128
G34U C85U | 0.164
G34U G39U | 0.115

Variant | self-cleavage
G34U G39C | 0.111
C32U A77C | 0.162
G35C A56U | 0.232
G35C A56G | 0.128
C33G G34A | 0.0831
C33U C66U | 0.774
C33G A45C | 0.0449
G34C G50U | 0.175
G34C U72C | 0.19
G34U C61A | 0.0608
G34C C48U | 0.17
G34U G68A | 0.274
G34C G39U | 0.156
C33A G67U | 0.253
G34A C49G | 0.155
G35A A83C | 0.0692
G34U G40U | 0.0882
C32U C64G | 0.875
G34U G52A | 0.208
C33U G82A | 0.302
G34U G53C | 0.136
G34C C49U | 0.208
G34C C49A | 0.249
G35C C57A | 0.302

Variant | self-cleavage
G34C G81A | 0.16
G34C U69A | 0.0739
C33U G80U | 0.179
C33U G80A | 0.12
C32U G34A | 0.0302
C32U G34C | 0.0875
C32U G34U | 0.215
G34U C41U | 0.131
C32U G50A | 0.862
C32U G50U | 0.844
C33U G53U | 0.916
G35C A70G | 0.208
C33U A45U | 0.57
C33G C85G | 0.151
G35C A87U | 0.208
G34A C61U | 0.213
C32U G39U | 0.486
C33A G55C | 0.181
G34C C36A | 0.0707
C33U G59U | 0.855
C32U G74C | 0.224
G35A A71G | 0.464
C32U A43U | 0.491
C32U A43G | 0.63

Variant | self-cleavage
C33A U79G | 0.214
G34U A56U | 0.18
G34A U65G | 0.178
G34A U65A | 0.0692
G34A U65C | 0.141
G34C C61A | 0.208
G34U A45U | 0.0378
G34U G50U | 0.191
C33U C62A | 0.583
C33U C62G | 0.635
G35A G38C | 0.0652
G35A G82U | 0.241
C32U C61G | 0.791
C33U U79A | 0.684
G35A A70U | 0.62
G34A C84A | 0.126
G34C C62G | 0.0639
G34A A77U | 0.0339
G35A C61U | 0.511
C33G G80A | 0.0631
C33G G80U | 0.0528
C33G A71U | 0.213
C33G A77G | 0.138
C33G A77C | 0.115

Variant | self-cleavage
C32U G82U | 0.256
G34A U37C | 0.102
G34A U37A | 0.0554
C32U C62G | 0.727
G34U G76A | 0.231
G34U G76C | 0.0821
G34U U37C | 0.148
G34U U37A | 0.158
C33U G50C | 0.786
C33U G50A | 0.774
C33G G82U | 0
G34U C49U | 0.136
G35A G81A | 0.277
G34A G50A | 0.16
G34A G54A | 0.16
G34A C75A | 0.107
C33A A51U | 0.373
G35A G76A | 0.709
G34C G52A | 0.17
C33U G67A | 0.749
G35A U72C | 0.283
G34C A70U | 0.0378
C33U A71G | 0.886
C32U G68C | 0.803

Variant | self-cleavage
G34C G68C | 0.128
C33U G68C | 0.789
C33U G68U | 0.678
C32U U46A | 0.573
G35C C41A | 0.237
G35C C41G | 0.161
G34C C63U | 0.287
G34A G55U | 0.192
G34A G55A | 0.17
C32U C57A | 0.817
C32U C57G | 0.975
C32U C57U | 0.843
C33G G76U | 0.116
C32U G55A | 0.967
G35A C84G | 0.45
C33U A83G | 0.511
C33U A83U | 0.415
G35C C44G | 0.145
G35C A51G | 0.415
G35C A51C | 0.297
G35C A45G | 0.237
G35C A83C | 0.162
G35C A83G | 0.237
